Test results as given in the supplement of paper PMC9170038.

System: MS2 coat protein
Test: apparent KD of MS2 coat protein; designed switch direction (-1 OFF switch, 1 ON switch): -1; higher = weaker reporter binding
In short: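 The buffer was Tris-HCl pH 7.5 with KCl, MgCl2, BSA, DTT, tRNA and Tween-20. In it, SNAP-549-labelled MS2 coat protein was titrated in doubling steps from 0.7 or 1.5 nM to 3 µM over chip-bound RNA switches transcribed by stalled E. coli RNA polymerase on Illumina chips. Apparent KD is the per-design median over clusters of curve fits to normalised fluorescence.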

[1] = input ligand: microRNA oligo, concentration not stated
[2] = Eterna round: R95, input ligand: FMN 200 uM
[3] = Eterna round: R95, input ligand: microRNA oligo, concentration not stated
[4] = Eterna round: R95, input ligand: none

Sequence	apparent KD of MS2 coat protein (input ligand: FMN 200 uM) [nM]	apparent KD of MS2 coat protein [1] [nM]	apparent KD of MS2 coat protein (input ligand: none) [nM]	apparent KD of MS2 coat protein [3] [nM]	other results
UACCUGAGGCAAAGCUUUAGGCUUACAUGAGGAUCACCCAUGUAGGAUAUGGUAGGCUUUGCUUACCAGAAGGACAUGGAAAUU [Mat - Exclusion NG 3 - Mod of JL - D22] (Eterna round: R96, puzzle: Exclusion NG 3)	64.3	18	19.1		
UACCUGAGGCUUUGCUUUAGGCUUACAUGAGGAUCACCCAUGUAGGAUAUGGUAGGCAAAGCUUACCAGAAGGACAUGGAAAUU [Mat - Exclusion NG 3 - Mod of JL - D21] (Eterna round: R96, puzzle: Exclusion NG 3)		13.2			
UACGAAGAGUGAGGAUAUGUGCGACAAAGUUGCACAGAAGGCACAUGAGGAUCACCCAUGUGAGCUAGGUCGAAAGACCUAGCG [Omei Exc(NG)1 Av6] (Eterna round: R96, puzzle: Exclusion NG 1)	37	13.6	19.7		
UACGAGUUAGGAUAUGCAAUGGGCUCGCUUUCCUUCGAUAAACUUGAGGAUCACCCAAGUAGAAGGAACUUGUA [Mod 36 - Jieux - Exclusion 2] (Eterna round: R97, puzzle: Exclusion 2)	19.9		16.2		
UACUAAAAGGAGGAUAUCGUAUCGGAAACGAUACGAGAAGGCUUAACAUGAGGAUCACCCAUGUUCUUCAAUAA [Mat - Exclusion 6 - Eli Mod - D88] (puzzle: Exclusion 6)				17.3	apparent KD of MS2 coat protein [2]: 24.6 nM; apparent KD of MS2 coat protein [4]: 16.4 nM
UACUAAAAGGAGGAUAUCGUAUCGGAGACGAUACGAGAAGGCUUAACAUGAGGAUCACCCAUGUUCUUCAAUAU [Mat - Exclusion 6 - Eli Mod - D96] (puzzle: Exclusion 6)				14.8	
UAGAAGGUAGGAUAUACGAAUAAAUAGGGUAGGAAGAAGACACAUGAGGAUCACCCAUGUAGAAGGACCAAGAU [Mat - Exclusion 2 - Mod of my Tesla design - D34] (puzzle: Exclusion 2)				17.5	apparent KD of MS2 coat protein [2]: 36.6 nM; apparent KD of MS2 coat protein [4]: 18.5 nM
UAGAAUCGAGGAUAUACAUGAGGAUCACCCAUGUGUGGCCAUUUGGUGUGGUCGUCAGGUAGAAGGCGAUUACA [Exclusion 3 - Mod of Jieux's Gilly Gone Silly 23 v.5] (Eterna round: R96, puzzle: Exclusion 3)	173	211	412		
UAGAAUCGAGGAUAUACAUGAGGAUCACCCAUGUGUGGCCAUUUGGUGUGGUCGUCAGGUAGAAGGCGAUUACA [Exclusion 3 - Mod of Jieux's Gilly Gone Silly 23 v.5] (puzzle: Exclusion 3)				141	
UAGAAUCGAGGAUAUACAUGAGGAUCACCCAUGUGUUGCCGCGUGAUGUGUUUGUCAGGUAGAAGGCGAUUAUA [Exclusion 3 - Mod of Jieux's Gilly Gone Silly 23 v.8] (puzzle: Exclusion 3)				63.8	
UAGAGACAUGAGGAUCACCCAUGUCAGGAUAUCUGCUUAGACAGGUUCACGGUCUAGUAGAGAAGGGACUGGAG [Eternabot (L2) Solution 42] (Eterna round: R97, puzzle: Exclusion 1)	121		87.4		
UAGAUGCUCAGGGAGUGUGACAUGAGGAUCACCCAUGUGGUGGUAGGGAACAAGCUUUUUGCACGUACUUAUGAGUA [JR_SV3TOV1_Sub007] (Eterna round: R96, puzzle: Sensor v3, turn-off variant 1)	435	148	497		
UAGAUGCUCAGGGAGUGUGACAUGAGGAUCACCCAUGUGGUGGUAGGGAACAAGCUUUUUGCACGUACUUAUGAGUA [JR_SV3TOV1_Sub007] (puzzle: Sensor v3, turn-off variant 1)				18.3	apparent KD of MS2 coat protein [2]: 64.9 nM; apparent KD of MS2 coat protein [4]: 117 nM
UAGAUGGGAGGAUAUGCAUAGAUACAGAUUCAUGUAGUGCUACAUGAGGAUCACCCAUGUAGAAGGCCCGUCUU [JL-ex2-2.20 Mayanne mod] (Eterna round: R96, puzzle: Exclusion 2)	208	22.1	24.1		
UAGAUGGGAGGAUAUGCAUAGAUACAGAUUCAUGUAGUGCUACAUGAGGAUCACCCAUGUAGAAGGCCCGUCUU [JL-ex2-2.20 Mayanne mod] (puzzle: Exclusion 2)				19.9	
UAGAUGGGAGGAUAUGCAUAGAUACAGAUUCGUGUAGUGCUACAUGAGGAUCACCCAUGUAGAAGGCCCGUCUU [JL-ex2-2.22 Mayanne mod] (puzzle: Exclusion 2)				14.2	
UAGAUGGGAGGAUAUGCGUAGAUACGGAUUCGUGUAGUGCUACAUGAGGAUCACCCAUGUAGAAGGCCCGUCUU [JL-ex2-2.28 Mayanne mod] (puzzle: Exclusion 2)				13.9	

Sequence	apparent KD of MS2 coat protein (input ligand: FMN 200 uM) [nM]	apparent KD of MS2 coat protein [1] [nM]	apparent KD of MS2 coat protein (input ligand: none) [nM]	apparent KD of MS2 coat protein [3] [nM]	other results
UAGCAUUGCCUUUGGUAGUGCCUUACAUGAGGAUCACCCAUGUAGGAUAUGGUAGGCUUUGCUUACCAGAAGGACAUGGUAAUU [JL ENG3 1.06] (Eterna round: R96, puzzle: Exclusion NG 3)		54.1			
UAGCAUUGCCUUUGGUAGUGCUAUACAUGAGGAUCACCCAUGUAGGAUAUGGUCGGCUUUGCUGACCAGAAGGACAUGUGUAUU [MOD2 ENG3 1.04 by JL] (Eterna round: R96, puzzle: Exclusion NG 3)	159	91.5	93.1		
UAGGCACCUGCAGGAUAUUAGAGGCGCUUUCUGUAAGAAGGGCAGGUUCACAUGAGGAUCACCCAUGUAAAGAACAGCAUGGCA [Eternabot solution 24] (Eterna round: R96, puzzle: Exclusion NG 1)	23.1	17.4	28.9		
UAGGUACAUGAGGAUCACCCAUGUGAGGAUAUAGUUGAAGAUUGCGAGAGGUUGAGGACUAGAAGGCACAGUGG [JR_Exclu1_Sub038] (puzzle: Exclusion 1)				63.5	apparent KD of MS2 coat protein [2]: 137 nM; apparent KD of MS2 coat protein [4]: 90.2 nM
UAGGUGUGAGGAUAUGGUAAAGAUAAGAUGAUGAAAGAACUCCAGAAGGCACAUGAGGAUCACCCAUGUAGAUG [JL-ex4-2.16 Jieux mod] (puzzle: Exclusion 4)				33.3	
UAGUAUAUCUAUGGGAGUAACAUGAGGAUCACCCAUGUAUGUCUUGUUUUUUGUUCGUCAUAGGCCGGUUGAACGGU [JR_SV3TOV1_Sub027] (puzzle: Sensor v3, turn-off variant 1)				27.7	apparent KD of MS2 coat protein [2]: 23.3 nM; apparent KD of MS2 coat protein [4]: 26.5 nM
UAGUGAAACACAGGAUAUCGCCUCUUAUUACAUGAGGAUCACCCAUGUUUAGUUAGUUACAUGUACGAGAAGGGUGAAGUAGUU [JR_ExcNG2_Sub040] (Eterna round: R96, puzzle: Exclusion NG 2)	1110	674	1430		
UAGUGGUUACGUUGGAGUUGUAUGAGCGGAGGCUCUGUGACAUGAGGAUCACCCAUGUAGCUUUUUGCUCGUCUUAA [JR_SV3TOV2_Sub039] (puzzle: Sensor v3, turn-off variant 2)				41.5	apparent KD of MS2 coat protein [2]: 22.5 nM; apparent KD of MS2 coat protein [4]: 22.6 nM
UAUAAACAUGAGGAUCACCCAUGUGAGGAUAUCUAAACCAGAGCGGAUCUCUGGACCAAGAGAAGGUGCAUGGU [ElNandoxlusion 10 - Jieux - Exclusion 1] (Eterna round: R97, puzzle: Exclusion 1)	66.9		31.7		
UAUAAAGGCUCAGGAUAUGGUGCGUCACAUGAGGAUCACCCAUGUAACGUGGCGGAACCUGCGCGCUAGAAGGGAGUAGCGAAA [Laensoqu] (Eterna round: R96, puzzle: Exclusion NG 2)	8.44	8.05	10.7		
UAUAAGAUAGGAUAUACAGGCCCGUCUUCAUAUUGAUCCCGACAUGAGGAUCACCCAUGUAGAAGGAUCGUAUA [Mod 23 - Jieux - Exclusion 2] (Eterna round: R97, puzzle: Exclusion 2)	23.3		21.9		
UAUAAUCGAGGAUAUACAUGAGGAUCACCCAUGUGUUGCCGCGUGACAUGAUCGUCAGGUAGAAGGCGAUUAUA [Exclusion 3 - Mod of Jieux's Gilly Gone Silly 23 v.10] (puzzle: Exclusion 3)				147	
UAUAUAUAGUAAGGAUAUAUAUUUUUUUUUUAAAUAGAAGGUACAGACAUGAGGAUCACCCAUGUUAUAAUAUGGACAUGUGGA [JMF's Solution 3] (Eterna round: R96, puzzle: Exclusion NG 1)		113			
UAUAUAUAGUAAGGAUAUGUAAUUAUUUUAUACACAGAAGGUACUGACAUGAGGAUCACCCAUGUUUUAGUGUGGGCAUGUAGA [JMF's solution 51] (Eterna round: R96, puzzle: Exclusion NG 1)		47.1			
UAUAUAUAGUAAGGAUAUGUAAUUAUUUUAUUAACAGAAGGUACUGACAUGAGGAUCACCCAUGUUUUAGUGUGGGCAUGUAGA [JMF's solution 47] (Eterna round: R96, puzzle: Exclusion NG 1)		72.6			
UAUAUAUAGUAAGGAUAUGUAGUUAUUUUAUAAACAGAAGGUACUGACAUGAGGAUCACCCAUGUUUUAGUGUGGGCAUGUAGA [JMF's solution 6] (Eterna round: R96, puzzle: Exclusion NG 1)		71.1			
UAUAUAUAGUAAGGAUAUGUAUUAAUGUUAUAAACAGAAGGUACUGACAUGAGGAUCACCCAUGUUUUAGUGUGGGCAUGUAGA [JMF's solution 78] (Eterna round: R96, puzzle: Exclusion NG 1)		73.8			
